Test results published in US20170044259A1 (CYTOMX THERAPEUTICS, published 2017).

T1: mouse PD-1 expressed on HEK293 cells (mouse, UniProt Q02242 25-288)
T1 construct: whole, on cells; also called HEK293-mPD-1; mPD-1 HEK293 cells
T1 sequence (looked up): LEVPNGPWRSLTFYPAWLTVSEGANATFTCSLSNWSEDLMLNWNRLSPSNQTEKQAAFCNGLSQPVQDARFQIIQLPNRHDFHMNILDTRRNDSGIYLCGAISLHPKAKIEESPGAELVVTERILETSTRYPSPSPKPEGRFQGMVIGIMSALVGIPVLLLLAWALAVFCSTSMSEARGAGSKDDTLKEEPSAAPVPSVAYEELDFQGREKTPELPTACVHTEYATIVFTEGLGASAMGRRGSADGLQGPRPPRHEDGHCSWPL


How the values were obtained:
[1] = biological target: T1, mouse PD-1 expressed on HEK293 cells; assay: flow cytometry on mPD-1 HEK293 cells, titration from 150 nM
[2] = biological target: T2, human PD-1-Fc (R and D systems, Minneapolis, Minn.) (human, UniProt Q15116 25-167); assay: plate ELISA on adsorbed human PD-1-Fc, single site saturation fit
T2 construct: bought; also called hPD-1-Fc; hPD-1; not shown: Fc part of the bought fusion
T2 sequence (Q15116 25-167 limits assumed): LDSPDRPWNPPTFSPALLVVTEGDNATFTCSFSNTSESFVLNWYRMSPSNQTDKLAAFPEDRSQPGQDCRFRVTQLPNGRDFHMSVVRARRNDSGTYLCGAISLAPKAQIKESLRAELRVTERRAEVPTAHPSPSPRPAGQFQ

[3] = biological target: T2, human PD-1-Fc (R and D systems, …); assay: inhibition ELISA on human PD-1-Fc; competitor 2 nM biotinylated PDL2 (hPDL2/Fc)
[4] = biological target: T2, human PD-1-Fc (R and D systems, …); assay: inhibition ELISA on human PD-1-Fc; competitor 2 nM biotinylated PD-L1 (hPDL1/Fc)
[5] = biological target: T2, human PD-1-Fc (R and D systems, …); assay: plate ELISA on human PD-1-Fc; reference A1.4
[6] = biological target: T2, human PD-1-Fc (R and D systems, …); assay: plate ELISA on human PD-1-Fc

| Binder | Kd [2] [nM] | ME (masking efficiency, Kd of the activatable antibody divided by Kd of the parental antibody) [5] | also measured |
| --- | --- | --- | --- |
| J43v2 mIgG2a (antibody, V domains shown, also called J43 m2a; J43v2 m2a) VH: EVRLLESGGGLVKPEGSLKLSCVASGFTFSDYFMSWVRQAPGKGLEWVAHIYTKSYNYATYYSGSVKGRFTISRDDSRSMVYLQMNNLRTEDTATYYCTRDGSGYPSLDFWGQGTQVTVSS VL: YELTQPPSASVNVGETVKITCSGDQLPKYFADWFHQRSDQTILQVIYDDNKRPSGIPERISGSSSGTTATLTIRDVRAEDEGDYYCFSGYVDSDSKLYVFGSGTQLTVLG |  |  | binding result [1]: binds |
| m136-M14-MHC724 (antibody, V domains shown, mouse hybridoma antibody, mIgG2a/K) VH: KVMLVESGGDLVKPGGSLKLSCAASGFTFSSYGMSWVRQTPEKRLEWVATISGGGRDIYYADTVKGRFTISRDNAKNTLYLQMSSLRSEDTALYFCARLYLGFDYWGQGTTLTVSS VL: DIQMTQSPASQSASLGESVTITCLASQTIGTWLAWYQQKPGKSPQLLIYAATSLADGVPSRFSGSGSGTKFSFKISSLQAEDFVSYYCQQLYSIPWTFGGGTKLEIK | 0.19 |  | IC50 [3]: 2.8 nM; IC50 [4]: 4.8 nM |
| PD-1 1.4 PD001 2001 (antibody, human IgG4 S228P, kappa, hIgG4 S228P/hK; also called PD01 (A1.4)) heavy: not shown light: QGQSGQGAMSGCSWSAFCPYLAGGGSSGGSISSGLLSGRSDNHGGGSDIQLTQSPSSLSASVGDRVTITCRASESVDSYGISFMNWFQQKPGKAPKLLIYAASNQGSGVPSRFSGSGSGTDFTLTISSMQPEDFATYYCQQSKDVPWTFGQGTKLEIKRTVAAPSVFIFPPSDEQLKSGTASVVCLLNNFYPREAKVQWKVDNALQSGNSQESVTEQDSKDSTYSLSSTLTLSKADYEKHKVYACEVTHQGLSSPVTKSFNRGEC |  | 25 |  |
| D4 (antibody, human IgG4 S228P, kappa, V domains shown, humanized, full length hIgG4/hKappa) VH: EVQLVESGGGLVQPGGSLRLSCAHSGFSFSSYDMSWVRQAPGKGLEWVATISGGGRYTYYADSVKGRFTISRDNSKNTLYLQMNSLRAEDTAVYYCASNYYGFDYWGQGTLLTVSS VL: DIQMTQSPSSLSASVGDRVTITCKASQDVGTAVAWYQQKPGKAPKLLIYWASTRHTGVPSRFSGSGSGTDFTLTISSVQPEDFATYYCQQYSSYPWTFGQGTKLEIKR |  |  | binding result [6]: binds |
| m245-M5-MHC729 (antibody, V domains shown, mouse hybridoma antibody, mIgG1/K) VH: EVQLVESGGGLVKSGGSLKLSCAHSGFSFSSYDMSWVRQTPAKRLEWVATISGGGRYTYYPDSVKGRFTISRDNAKNTLYLQMSGLRSEDTAMYYCASNYYGFDYWGQGTTLTVSS VL: DIVMTQSHKFMSTSVGDRVSITCKASQDVGTAVAWYQQKPGQSPKLLIYWASTRHTGVPDRFTGSGSGTDFTLTISNVQSEDLADYFCQQYSSYPWTFGGGTKLEIK | 0.34 |  |  |
| PD-1 1.4 PD002 2001 (antibody, human IgG4 S228P, kappa, also called PD02 (A1.4)) heavy: not shown light: QGQSGQGDVNCAIWYSVCTTVPGGGSSGGSISSGLLSGRSDNHGGGSDIQLTQSPSSLSASVGDRVTITCRASESVDSYGISFMNWFQQKPGKAPKLLIYAASNQGSGVPSRFSGSGSGTDFTLTISSMQPEDFATYYCQQSKDVPWTFGQGTKLEIKRTVAAPSVFIFPPSDEQLKSGTASVVCLLNNFYPREAKVQWKVDNALQSGNSQESVTEQDSKDSTYSLSSTLTLSKADYEKHKVYACEVTHQGLSSPVTKSFNRGEC |  | 18 |  |
| m245-M3-MHC728 (antibody, V domains shown, mouse hybridoma antibody, mIgG2a/K) VH: EVKLVESGGGLVKPGGSLKLSCAASGFTFSNYAMSWVRQTPAKRLEWVAYISNGGGDTHYPDSLKGRFTVSRDNAKNTLYLQMSSLKSEDTAMYYCARENYGTSPFVYWGQGTLVTVSA VL: not shown | 0.22 |  |  |
| m136-M13-MHC723 (antibody, V domains shown, mouse hybridoma antibody, mIgG1/K) VH: EVKLVESGGGLVKPGGSLKLSCAASGFTFSGYAMSWVRQTPAKRLEWVAYISNSGGNAHYPDSVKGRFTISRDNAKNTLYLQMSSLRSEDTAMYYCTREDYGTSPFVYWGQGTLVTVSA VL: not shown | 0.19 |  | IC50 [3]: 2 nM; IC50 [4]: 3.3 nM |

Now from value to binder, other results behind:

| Kd [2] [nM] | ME (masking efficiency, Kd of the activatable antibody divided by Kd of the parental antibody) [5] | Binder | also measured |
| --- | --- | --- | --- |
|  | 5 | PD-1 1.4 PD003 2001 (antibody, human IgG4 S228P, kappa, also called PD03 (A1.4)) heavy: not shown light: QGQSGQGLVCPLYALSSGVCMGGGGSSGGSISSGLLSGRSDNHGGGSDIQLTQSPSSLSASVGDRVTITCRASESVDSYGISFMNWFQQKPGKAPKLLIYAASNQGSGVPSRFSGSGSGTDFTLTISSMQPEDFATYYCQQSKDVPWTFGQGTKLEIKRTVAAPSVFIFPPSDEQLKSGTASVVCLLNNFYPREAKVQWKVDNALQSGNSQESVTEQDSKDSTYSLSSTLTLSKADYEKHKVYACEVTHQGLSSPVTKSFNRGEC |  |
|  | 13 | PD-1 1.4 PD010 2001 (antibody, human IgG4 S228P, kappa, also called PD-10 (A1.4); PD10 (A1.4)) heavy: not shown light: QGQSGQGGLCSWYLSSSGLCVDGGGSSGGSISSGLLSGRSDNHGGGSDIQLTQSPSSLSASVGDRVTITCRASESVDSYGISFMNWFQQKPGKAPKLLIYAASNQGSGVPSRFSGSGSGTDFTLTISSMQPEDFATYYCQQSKDVPWTFGQGTKLEIKRTVAAPSVFIFPPSDEQLKSGTASVVCLLNNFYPREAKVQWKVDNALQSGNSQESVTEQDSKDSTYSLSSTLTLSKADYEKHKVYACEVTHQGLSSPVTKSFNRGEC |  |
|  | 13 | PD-1 1.4 PD008 2001 (antibody, human IgG4 S228P, kappa, also called PD08 (A1.4)) heavy: not shown light: QGQSGQGETCNQYERSSGLCFAGGGSSGGSISSGLLSGRSDNHGGGSDIQLTQSPSSLSASVGDRVTITCRASESVDSYGISFMNWFQQKPGKAPKLLIYAASNQGSGVPSRFSGSGSGTDFTLTISSMQPEDFATYYCQQSKDVPWTFGQGTKLEIKRTVAAPSVFIFPPSDEQLKSGTASVVCLLNNFYPREAKVQWKVDNALQSGNSQESVTEQDSKDSTYSLSSTLTLSKADYEKHKVYACEVTHQGLSSPVTKSFNRGEC |  |
|  | 2 | PD-1 1.4 PD009 2001 (antibody, human IgG4 S228P, kappa, also called PD09 (A1.4)) heavy: not shown light: QGQSGQGAPRTCYTYQCSSFYTGGGSSGGSISSGLLSGRSDNHGGGSDIQLTQSPSSLSASVGDRVTITCRASESVDSYGISFMNWFQQKPGKAPKLLIYAASNQGSGVPSRFSGSGSGTDFTLTISSMQPEDFATYYCQQSKDVPWTFGQGTKLEIKRTVAAPSVFIFPPSDEQLKSGTASVVCLLNNFYPREAKVQWKVDNALQSGNSQESVTEQDSKDSTYSLSSTLTLSKADYEKHKVYACEVTHQGLSSPVTKSFNRGEC |  |
| 0.23 |  | m136-M19-MHC725 (antibody, V domains shown, mouse hybridoma antibody, mIgG2b/K) VH: EVQLQQSGPELVKPGDSVKMSCKASGYTFTDYYMDWVKQSHGKSLEWIGYIYPKNGGSSYNQKFKGKATLTVDKSSSTAYMELHSLTSEDSAVYYCARKVVATDYWGQGTTLTVSS VL: DIVMSQSPSSLAVSVGEKVTMSCKSSQSLLYSSNQKNYLAWYQQKPGQSPKLLIFWASIRESGVPDRFTGSGSGTDFTLTISSVKAEDRAVYYCQQCDSYPWTFGGGTKLEIK |  |
